In series [1] the target is T1, CpPGM1B long form (rCpPGM1B-L) (Cryptosporidium parvum, UniProt Q5CTF2).
T1 construct: gene cgd2_3270; linker plus PGM1 domain; signal peptide (63 nt) removed (full ORF 2013 bp); MBP-fusion (pMAL-c5x), E. coli BL21(DE3), MBP kept
T1 sequence (Q5CTF2 24-670): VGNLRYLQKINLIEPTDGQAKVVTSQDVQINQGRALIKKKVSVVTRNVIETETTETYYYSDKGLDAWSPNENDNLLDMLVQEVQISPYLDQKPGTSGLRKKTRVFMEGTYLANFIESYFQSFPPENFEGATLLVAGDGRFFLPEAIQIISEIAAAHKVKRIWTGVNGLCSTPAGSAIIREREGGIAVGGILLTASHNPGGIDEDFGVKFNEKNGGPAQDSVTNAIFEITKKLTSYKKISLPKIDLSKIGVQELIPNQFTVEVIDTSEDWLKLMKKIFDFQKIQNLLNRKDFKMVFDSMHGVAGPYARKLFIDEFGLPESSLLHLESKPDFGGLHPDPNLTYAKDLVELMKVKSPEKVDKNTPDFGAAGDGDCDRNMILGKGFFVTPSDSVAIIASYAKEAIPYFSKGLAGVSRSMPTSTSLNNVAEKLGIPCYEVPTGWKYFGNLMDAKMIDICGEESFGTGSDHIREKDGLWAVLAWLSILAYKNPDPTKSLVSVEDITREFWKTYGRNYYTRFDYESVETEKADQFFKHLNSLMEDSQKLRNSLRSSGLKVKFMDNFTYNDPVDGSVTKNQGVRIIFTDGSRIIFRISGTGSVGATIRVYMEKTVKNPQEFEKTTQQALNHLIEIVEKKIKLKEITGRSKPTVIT
Description: G6PDH-coupled assay, NADH formation at […] nm. Format: biochemical. The following applies: 50 mM Tris-HCl pH 8.5, 1.0 mM MgCl2, 0.2 mM NAD+, 2 mM G1P.

Substrate in series [2]: O=P(O)(O)O[C@H]1O[C@H](CO)[C@@H](O)[C@H](O)[C@H]1O
Description: purified protein. Format: biochemical, Cryptosporidium parvum. The following applies: 50 mM Tris-HCl pH 8.5, 1.0 mM MgCl2, 0.2 mM NAD+.

The source of these data is publication PMC8781159, “Implication of Potential Differential Roles of the Two Phosphoglucomutase Isoforms in the Protozoan Parasite Cryptosporidium parvum” (Pathogens, 2021).

As for `O=P(O)(O)O[C@H]1O[C@H](CO)[C@@H](O)[C@H](O)[C@H]1O` [G1P, glucose-1-phosphate], the “G6PDH-coupled assay, NADH formation at 340 nm” value in series [1] was “rCpPGM1A, rCpPGM1B-L and rCpPGM1B-S) displayed activity in converting G1P to G6P”.

B1: CpPGM1B short form (rCpPGM1B-S) (Cryptosporidium parvum Iowa II) (protein)
chain: LLDMLVQEVQISPYLDQKPGTSGLRKKTRVFMEGTYLANFIESYFQSFPPENFEGATLLVAGDGRFFLPEAIQIISEIAAAHKVKRIWTGVNGLCSTPAGSAIIREREGGIAVGGILLTASHNPGGIDEDFGVKFNEKNGGPAQDSVTNAIFEITKKLTSYKKISLPKIDLSKIGVQELIPNQFTVEVIDTSEDWLKLMKKIFDFQKIQNLLNRKDFKMVFDSMHGVAGPYARKLFIDEFGLPESSLLHLESKPDFGGLHPDPNLTYAKDLVELMKVKSPEKVDKNTPDFGAAGDGDCDRNMILGKGFFVTPSDSVAIIASYAKEAIPYFSKGLAGVSRSMPTSTSLNNVAEKLGIPCYEVPTGWKYFGNLMDAKMIDICGEESFGTGSDHIREKDGLWAVLAWLSILAYKNPDPTKSLVSVEDITREFWKTYGRNYYTRFDYESVETEKADQFFKHLNSLMEDSQKLRNSLRSSGLKVKFMDNFTYNDPVDGSVTKNQGVRIIFTDGSRIIFRISGTGSVGATIRVYMEKTVKNPQEFEKTTQQALNHLIEIVEKKIKLKEITGRSKPTVIT
notes: PGM1 domain only; signal peptide and ~80 aa linker removed (full ORF 2013 bp); MBP-fusion (pMAL-c5x), E. coli BL21(DE3), MBP kept
Take B1: the Km in series [2] was found to be 130 µM.

B2: CpPGM1A (rCpPGM1A) (Cryptosporidium parvum) (protein)
chain: MEQVQVTPYLDQKPGTSGLRKKTRVFMEGTYLANFIESYFQSFPPENFEGATLLVAGDGRFFLPEAIQIISEIAAAHKVKRIWTGVNGLCSTPAGSAIIREREGGIAVGGILLTASHNPGGIDEDFGVKFNGKNGGPAQDSVTNTIFEITKKLTSYKKISLPKIDLSKIGVQELIPNQFTVEVIDTSEDWLKLMKKIFDFQKIQNLLNRKDFKMAFDSMHGVAGPYARKLFVDEFGLPESSLLHLESKPDFGGLHPDPNLTYAKDLVELMKVKSPEKVDKSTPDFGAAGDGDCDRNMILGKGFFVTPSDSVAIIASYAKEAIPYFSKGLAGVSRSMPTSTSLNNVAEKLGIPCYEVPTGWKYFGNLMDAKMIDICGEESFGTGSDHIREKDGLWAVLAWLSILAHKNPDPTKPLVSVEDITREFWKTYGRNYYTRFDYESIETEKADQFFKHLNSLMEDHQKLREIIKPYGIDIKLTDNFTYNDPVDKSVAKNQGLRFIFQDNSRVVFRLSGTGSVGATIRIYIEKTVSDQTKVNSTSNEILGDLIEIVEKKIKLKESTGRDRPTVIT
Consider B2, for which, in series [2], the Km came out at 170 µM.

The term Km denotes the substrate concentration at which the rate is half of its maximum.
